{"source": "paper PMC12343972", "about": "(Nature Communications, 2025)", "binders": {"B1": {"name": "83-mer dsDNA (EMSA) (dsDNA)", "DNA 1": "TTGATAAGAGGTCATTTTTGCGGATGGCTTAGAGCTTAATTGCTGAATCTGGTGCTGTAGCTCAACATGTTTTAAATATGCAA", "DNA 2": "TTGCATATTTAAAACATGTTGAGCTACAGCACCAGATTCAGCAATTAAGCTCTAAGCCATCCGCAAAAATGACCTCTTATCAA"}}, "key": {"Rad50-K173A K174A": {"biological_target": "T1, Rad50-K173A K174A (Saccharomyces cerevisiae, UniProt P12753 1-1312, K173A;K174A)", "T1 sequence": "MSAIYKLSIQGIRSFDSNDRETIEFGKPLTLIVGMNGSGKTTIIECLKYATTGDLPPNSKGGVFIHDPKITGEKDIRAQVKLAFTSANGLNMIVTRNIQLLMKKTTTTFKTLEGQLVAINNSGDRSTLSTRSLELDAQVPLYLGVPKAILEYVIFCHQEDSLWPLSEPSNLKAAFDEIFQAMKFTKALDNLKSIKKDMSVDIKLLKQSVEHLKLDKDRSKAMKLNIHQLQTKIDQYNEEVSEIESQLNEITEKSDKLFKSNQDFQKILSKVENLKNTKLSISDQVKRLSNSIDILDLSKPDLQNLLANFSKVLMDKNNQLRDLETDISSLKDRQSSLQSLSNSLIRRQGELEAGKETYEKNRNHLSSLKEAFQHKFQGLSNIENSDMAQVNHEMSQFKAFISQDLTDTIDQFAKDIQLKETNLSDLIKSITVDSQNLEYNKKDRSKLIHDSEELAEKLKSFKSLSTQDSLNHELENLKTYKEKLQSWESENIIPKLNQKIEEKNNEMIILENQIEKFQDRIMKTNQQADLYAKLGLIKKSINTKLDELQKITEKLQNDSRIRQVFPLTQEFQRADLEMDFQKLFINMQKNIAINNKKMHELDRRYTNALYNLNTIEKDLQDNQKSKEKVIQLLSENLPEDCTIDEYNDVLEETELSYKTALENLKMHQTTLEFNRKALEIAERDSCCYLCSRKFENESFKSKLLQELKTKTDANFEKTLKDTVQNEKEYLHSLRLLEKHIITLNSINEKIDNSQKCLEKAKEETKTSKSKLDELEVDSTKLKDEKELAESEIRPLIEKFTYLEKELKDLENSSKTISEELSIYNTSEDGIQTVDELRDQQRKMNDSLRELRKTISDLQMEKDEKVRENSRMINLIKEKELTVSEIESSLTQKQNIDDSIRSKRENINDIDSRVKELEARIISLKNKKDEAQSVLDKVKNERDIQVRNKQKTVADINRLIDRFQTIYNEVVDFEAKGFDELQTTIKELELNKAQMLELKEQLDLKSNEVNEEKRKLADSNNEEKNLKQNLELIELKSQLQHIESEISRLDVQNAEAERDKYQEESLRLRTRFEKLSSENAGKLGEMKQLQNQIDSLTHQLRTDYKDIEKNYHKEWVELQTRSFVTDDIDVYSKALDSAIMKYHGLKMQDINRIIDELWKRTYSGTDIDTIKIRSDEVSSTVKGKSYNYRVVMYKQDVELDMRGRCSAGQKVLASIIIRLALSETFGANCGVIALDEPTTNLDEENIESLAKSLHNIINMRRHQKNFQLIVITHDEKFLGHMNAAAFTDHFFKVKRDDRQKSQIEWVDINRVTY", "assay": "EMSA"}, "Rad50-K60A": {"biological_target": "T2, Rad50-K60A (Saccharomyces cerevisiae, UniProt P12753 1-1312, K60A)", "T2 sequence": "T1 sequence with K60A, A173K, A174K", "assay": "EMSA"}}, "note": "Changes are numbered by the printed parent chain.", "data": [{"binder": "B1", "values": [{"measurement": "binding result", "setting": "Rad50-K173A K174A", "result": "binds"}, {"measurement": "binding result", "setting": "Rad50-K60A", "result": "binds"}]}]}
